Data published in paper PMC8322138, “BRCA2 binding through a cryptic repeated motif to HSF2BP oligomers does not impact meiotic recombination” (Nature Communications, 2021).

Tests used:
GFP-HSF2BP = experiment: Co-immunoprecipitation of Flag-BRCA2 variants/fragments with GFP-HSF2BP WT; type: cell-based, human; details: transient HEK293T, anti-GFP beads, immunoblot
From the text: (§1) Expression constructs for producing point mutation and truncation variants of HS2BP and BRCA2 in human cells were engineered as described before[16] in the PiggyBac vectors by Gibson assembly. For transient expression into HEK293T cells plasmid DNA was transfected using calcium precipitation method or PEI transfection. For stable integration into HeLa cells, PiggyBac expression vectors were co-lipofected together with PiggyBac transposase plasmid (hyPBase[45]) with Lipofectamine 3000 (Thermo Fisher).
(§2) Cells were washed twice in ice-cold PBS and lysed in situ in NETT buffer (100 mM NaCl, 50 mM Tris pH 7.5, 5 mM EDTA pH 8.0, 0.5% Triton-X100) supplemented immediately before use with protease inhibitor cocktail (Roche) and 0.4 mg/ml Pefabloc (Roche) (NETT++); 450 µl NETT++ buffer was used per 145 mm dish ES cells, 1 ml for HeLa and HEK293T. After 5–10 min, cells were scraped off and collected in 1.5 ml microcentrifuge tubes; lysis was continued for additional 20–30 min on ice, then mixtures were centrifuged (15 min, 4 °C, 14,000 × g) and the supernatant (input) was added to washed anti-GFP beads (Chromotek). Beads and lysates were incubated 2–4 h at 4 °C while rotating, washed three times in NETT++ buffer and bound proteins were eluted by boiling in 2x Sample buffer. Immunoblotting was performed following standard procedures with the following antibodies: anti-GFP mAb (Roche, #11814460001), anti-GFP pAb (Abcam #ab290 and Invitrogen #A11122), anti-RAD51[46], anti-BRCA2 mAb Ab1 OP-95 (Millipore #OP95), anti-BRCA2 (Abcam #27976), anti-Flag (M2 antibody, Sigma, F3165 and F1804). For quantitative immunoblotting fluorescently labeled secondary antibodies were used: anti-mouse CF680 (Sigma #SAB460199), anti-rabbit CF770 (Sigma #SAB460215); membranes were scanned using Odyssey CLx imaging system (LI-COR).

[1] = tested on: H3 fragment (the ARM domain) of HSF2BP; experiment: Co-immunoprecipitation of Flag-BRCA2 fragments with GFP-HSF2BP fragment H3; type: cell-based, human; details: Fig. 1c; HEK293T; comparison with F15 and F9; reviewer's reading of the figure
From the text: as §1
as §2, with “Beads and lysates were incubated 2–4 h at 4 °C while rotating, washed three times in NETT++ buffer and bound proteins were eluted by boiling in 2x Sample buffer. Immunoblotting was performed following standard procedures with the following antibodies: anti-GFP mAb (Roche, #11814460001), anti-GFP pAb (Abcam #ab290 and Invitrogen #A11122), anti-RAD51[46], anti-BRCA2 mAb Ab1 OP-95 (Millipore #OP95), anti-BRCA2 (Abcam #27976), anti-Flag (M2 antibody, Sigma, F3165 and F1804).” left out

[2] = Stability / expression of recombinant GFP-HSF2BP variants; design: species or system human; details: peer review file; immunoblot, FACS
[3] = tested on: mitomycin C-induced repair foci; details: cited from earlier work
From the text: Consistent with our in vitro study, we observed in mouse ES cells that deletion of exon 12, coding for motif 1, causes a severe decrease in the BRCA2-HSF2BP interaction, and deletion of exons 12 to 14, coding for motifs 1 and 2, completely abolishes this interaction (Fig. 5d, e). […] We further previously ...

B1: F16: Flag-tagged BRCA2 fragment 2270-2333 (protein, UniProt P51587 2270-2333, looked up, fragment)
chain: GKRRGEPLILVGEPSIKRNLLNEFDRIIENQEKSLKASKSTPDGTIKDRRLFMHHVSLEPITCV
modifications: Flag tag
interaction with HSF2BP (co-precipitation) (GFP-HSF2BP): reduced efficiency
interaction with H3 (co-precipitation) [1]: same level of interaction

B2: L85R: GFP-HSF2BP point mutant (protein, UniProt O75031 1-334, looked up, variant L85R)
Heat shock factor 2-binding …: MGEAGAAEEACRHMGTKEEFVKVRKKDLERLTTEVMQIRDFLPRILNGEVLESFQKLKIVEKNLERKEQELEQLKMDCEHFKARRETVQADNIREKKEKLALRQQLNEAKQQLLQQAEYCTEMGAAACTLLWGVSSSEEVVKAILGGDKALKFFSITGQTMESFVKSLDGDVQELDSDESQFVFALAGIVTNVAAIACGREFLVNSSRVLLDTILQLLGDLKPGQCTKLKVLMLMSLYNVSINLKGLKYISESPGFIPLLWWLLSDPDAEVCLHVLRLVQSVVLEPEVFSKSASEFRSSLPLQRILAMSKSRNPRLQTAAQELLEDLRTLEHNV
modifications: GFP fusion
notes: GFP-HSF2BP point mutant
stability of recombinant GFP-HSF2BP variant [2]: unstable

B3: R200T: HSF2BP mutant R200T (protein, UniProt O75031 1-334, looked up, variant R200T)
Heat shock factor 2-binding …: MGEAGAAEEACRHMGTKEEFVKVRKKDLERLTTEVMQIRDFLPRILNGEVLESFQKLKIVEKNLERKEQELEQLKMDCEHFKARLETVQADNIREKKEKLALRQQLNEAKQQLLQQAEYCTEMGAAACTLLWGVSSSEEVVKAILGGDKALKFFSITGQTMESFVKSLDGDVQELDSDESQFVFALAGIVTNVAAIACGTEFLVNSSRVLLDTILQLLGDLKPGQCTKLKVLMLMSLYNVSINLKGLKYISESPGFIPLLWWLLSDPDAEVCLHVLRLVQSVVLEPEVFSKSASEFRSSLPLQRILAMSKSRNPRLQTAAQELLEDLRTLEHNV
localization of GFP-tagged HSF2BP to mitomycin C-induced repair foci [3]: abolishes localization
